Test results reported in patent publication US9057734B2, “Optogenetic probes for measuring membrane potential” (President and Fellows of Harvard College, priority 2010, dated 2015).

Experiment: Spectroscopic characterization of purified Arch WT and D95N
Format: physicochemical
Experimental: FIGS. 17A-17C show pH-dependent spectra of Arch 3 WT and D95N. […] At neutral pH, Arch absorbed maximally at 558 nm. Fluorescence emission (dashed line) was recorded on 2 μM protein solubilized in 1% DM, with λexc=532 nm. […] The absorption maximum was at 585 nm. […] Singular Value Decomposition of absorption spectra between 400-750 nm was used to calculate the fraction of the SB in the protonated state as a function of pH. The result was fit to a Hill function to determine the pKa of the SB.
Arch and its D95N mutant were expressed and purified from E. coli, following Bergo, V., et al. (Conformational changes detected in a sensory rhodopsin II-transducer complex. J. Biol. Chem. 278, 36556-36562 (2003)). Briefly, E. coli (strain BL21, pet28b plasmid) was grown in 1 L of LB with 100 μg/mL kanamycin, to an O.D 600 of 0.4 at 37° C. All-trans retinal (5 μM) and inducer (IPTG 0.5 mM) were added and cells were grown for an additional 3.5 hours in the dark. Cells were harvested by centrifugation and resuspended in 50 mM Tris, 2 mM MgCl2 at pH 7.3 and lysed with a tip sonicator for 5 minutes. The lysate was centrifuged and the pellet was resuspended in PBS supplemented with 1.5% dodecyl maltoside (DM). The mixture was homogenized with a glass/teflon Potter Elvehjem homogenizer and centrifuged again. The supernatant was concentrated and washed using a centricon 30k MWCO filter to a final volume of 3 mL.
The absorption spectra of purified Arch 3 WT and D95N were determined using an Ocean Optics USB4000 spectrometer with a DT-MINI-2-GS light source. Absorption spectra, for Arch 3 WT and D95N, were measured as a function of pH between pH 6 and 11. To determine the fluorescence emission spectra, proteins in a quartz cuvette were illuminated with the uncollimated beam of a 100 mW, 532 nm laser (Dragon Lasers, 532GLM100) or a 25 mW, 633 nm HeNe laser (Spectra-Physics). Scattered laser light was blocked with a 532 nm Raman notch filter (Omega Optical, XR03) or a 710/100 emission filter (Chroma), and fluorescence was collected perpendicular to the illumination with a 1000 micron fiber, which passed the light to an Ocean Optics QE65000 spectrometer. Spectra were integrated for 2 seconds.
The fluorescence quantum yields of Arch 3 WT and D95N were determined by comparing the integrated emission intensity to emission of a sample of the dye ALEXA FLUOR® 647 Conjugate. Briefly, the concentrations of micromolar solutions of dye and protein were determined using a visible absorption spectrum. […] The fluorescence emission spectra of dye and protein samples were measured with 633 nm excitation. The quantum yield was then determined by the formula
where Fl is the integrated fluorescence from 660 to 760 nm, ε is the extinction coefficient at 633 nm and c is the concentration.

B1: Arch 3 WT: Archaerhodopsin 3, light-driven proton pump from Halorubrum sodomense, used as fluorescent voltage indicator (protein)
chain: MDPIALQAGYDLLGDGRPETLWLGIGTLLMLIGTFYFLVRGWGVTDKDAREYYAVTILVPGIASAAYLSMFFGIGLTEVTVGGEMLDIYYARYADWLFTTPLLLLDLALLAKVDRVTIGTLVGVDALMIVTGLIGALSHTAIARYSWWLFSTICMIVVLYFLATSLRSAAKERGPEVASTFNTLTALVLVLWTAYPILWIIGTEGAGVVGLGIETLLFMVLDVTAKVGFGFILLRSRAILGDTEAPEPSAGADVSAAD
modifications: Halorubrum sodomense
notes: Archaerhodopsin 3, light-driven proton pump from Halorubrum sodomense, used as fluorescent voltage indicator
With B1 the ε633 (calibrated assuming peak extinction coefficient of Bacteriorhodopsin, 63,000 M^−1 cm^−1) was 6,300 M^−1cm^−1 and the QY (comparison to Alexa 647, excitation at 633 nm, listed as Arch WT) was 9 × 10^−4.
